Measured values as given in FireProtDB (doi:10.1016/s0014-5793(99)00158-1).

B1: Barstar wild type, P11540 (protein)
chain: MKKAVINGEQIRSISDLHQTLKKELALPEYYGENLDALWDCLTGWVEYPLVLEWRQFEQSKQLTENGAESVLQVFREAKAEGCDITIILS
B2: Ribonuclease wild type, P00648 (protein)
chain: MMKMEGIALKKRLSWISVCLLVLVSAAGMLFSTAAKTETSSHKAHTEAQVINTFDGVADYLQTYHKLPDNYITKSEAQALGWVASKGNLADVAPGKSIGGDIFSNREGKLPGKSGRTWREADINYTSGFRNSDRILYSSDWLIYKTTDHYQTFTKIR
B3: Ribonuclease wild type, P00649 (protein)
chain: MKKISSVFTMFALIAAILFSGFIPQQAYAETPLTQTATNETATIQLTSDVHTLAVINTFDGVADYLIRYKRLPDNYITKSQASALGWVASKGNLAEVAPGKSIGGDVFSNREGRLPSASGRTWREADINYVSGFRNADRLVYSSDWLIYKTTDHYATFTRIR

Conditions: pH 6.2, Thermal, DSC, Na-acetate 10 mM, NaCl 0.05 M, reversible: yes, whole UniProt chain shown

Protein | Tm (Bacillus amyloliquefaciens) [°C] | unfolding enthalpy (calorimetric) (Bacillus amyloliquefaciens) [kcal/mol] | unfolding enthalpy (van 't Hoff) (Bacillus amyloliquefaciens) [kcal/mol] | Tm (Bacillus intermedius) [°C] | unfolding enthalpy (calorimetric) (Bacillus intermedius) [kcal/mol] | unfolding enthalpy (van 't Hoff) (Bacillus intermedius) [kcal/mol]
B1 | 73.3 | 53 | 76 |  |  | 
B2 | 54.5 | 129 | 130 |  |  | 
B3 |  |  |  | 56.5 | 124 | 126
